How the values were obtained:
[1] = target: H1N1 HA (A/California/04/2009) (Influenza A virus A/California/04/2009 …, UniProt C3W5S1, strain)
[2] = target: H7N9 HA (A/Shanghai/1/2013) (Influenza A virus A/Shanghai/1/2013 …, strain)

Binder | binding result [1] | binding result [2]
H1-Ab1 (antibody, V domains shown) VH: EVQLVQSGAEVKKPGASVKVSCKASGYIFTSYGISWVRLAPGQGLEWMGWISGYNSNTNYAQKFQGRVTVTADTSTSTAYMELRSLRSDDTAVYYCARDRAHILTGYHFDCWGQGTLVTVSS VL: DIQMTQSPLSLPVTLGQPASISCRSSQSLVYIDGNTYLNWFQQRPGQSPRRLIYKVSNRDSGVPDRFSGSGSGTDFTLKISSVEAEDVGVYYCMQGTHWPPYTFGQGTKVEIK | binds | –
H1-Ab2 (antibody, V domains shown) VH: EVQLVQSGAEVKRPGASVKVSCKASGYTFTSYGISWVRQAPGQGLEWMGWISAYNGNTNYAQKLQGRVIMTTDTSTSTAYMELRSLRSDDTAVYYCARDRAHILTGYHFDYWGQGTLVTVSS VL: not shown | binds | –
H1-Ab3 (antibody, V domains shown) VH: EVQLVESGAEVKRPGASVKVSCKASGYTFTSYGISWVRQAPGQGLEWMGWISAYNGNTNYAQKLQGRVIMTTDTSTSTAYMELRSLRSDDTAVYYCARDRAHILTGYHFDCWGQGTLVTVSS VL: DIVMTQSPGTLSLSPGERATLSCGASQSVTSSYLAWYQQKPGQAPRLLIYDAPSRATGIPDRFSGSGSGTDFTLTISRLEPEDFAVYYCQQYGSSHVITFGQGTDWRLN | binds | –
H1-Ab4 (antibody, V domains shown) VH: EVQLVESGGALRKPGASVRVSCRSSGYRFTSNGISWVRQAPGRGLEWMGWISANSGNTFYAQKFQGRVTMTTDTSASTAYVELRRLRPDDTAMYYCARDVHYRFDSWGQGTLVTVSS VL: QSVLTQPPSASGSPGQSVAISCTGSSSDVGGYDWVSWYQQYPGKGPKLIIYEVNKRPPGVPDRFSGSKSGNTASLTVSGLQTEDEADYYCSSYAGGSRVFGGGTKLTVL | binds | –
H1-Ab8 (antibody, V domains shown) VH: EVQLVQSGAEVKKPGASVKVSCKASGYTFADYYIHWVRQAPGQGLEWMGWINPNSGDTNYAQKFQGRVTMTRDTSISTGDMELSRLRSDDTAVYYCARANRGGYFAWAFFDFWGQGTLVTVSS VL: EIVLTQSPGTLSLSPGERATLSCRASQSVSSRNLAWYQQKPGQAPRLLIYGASSRATGIPDRFSGSGSGTDFILSISRLEPEDFAVYYCQQYGSSPLTFGGGTKVEIK | binds | –
H1-Ab9 (antibody, V domains shown) VH: EVQLVESGAEVKKPGAPVKVSCKASGYTFTRYYIHWVRQAPGQGLEWMGWINPDSGDTKCAQRFQGRVTMTRDTSVSTAYMELRRLGSDDTALYYCARIQLRSDGFDLWGQGTLVTVSS VL: QSALTQPASVSGSPGQSITISCTGTSSDIGSYKFVSWYQQHPGKAPKVMIYEVTQRPSGVSNRFSGSKSGNTASLTISGLQAEDEADYYCCSYAGSSFWVFGGGTTLTVP | binds | –
H1-Ab11 (antibody, V domains shown) VH: QVQLVQSGAEVKKPGSSVKVSCKASGVTFDTYAFSWVRQAPGQGLEWMGGISPIFTTTNYAQTFQGRVTITADKSTSTAYMELSSLISEDTAVYYCAKGGPTTGTPYYVFGLDVWGQGTMVTVSF VL: DIVMTQSPLSSPVTLGQPASISCRSSQSLVHSDGNTYLSWLHQRPGQPPRLLIYKISNRFSGVPDRFTGSGAGTDFTLKISRVEAEDVGVYYCMQATQFQTFGQGTKVEIK | binds | –
H1-Ab15 (antibody, V domains shown) VH: EVQLVESGAEVKKPGSSVTVSCKASGNIFNSYTVSWVRQVPGQGLEWVARVIPTIGMSNYAPKLQGRVTVTADRSTNTAYMEVTSLRSEDTAVYYCATGPSYYYDANGSPTDYWGQGTLVTVSS VL: DIQMTQSSATLSVSPGETATLSCRASQSVSSHLVWYQQKPGQAPRLIIYGASTRATGIPVRFSGSRSGTEFTLTISSLQSEDFAIYYCQQYNNWPWTFGQGTKVEIK | binds | –
H1-Ab16 (antibody, V domains shown) VH: EVQLVESGAEVKKPGSSVKVSCTASGGAFNSHTISWLRQTPGQGLEWMGRIIPILGMANYAQKFHGRVTITADISTNTAYMELSSLRSEDTAVYSCAGGTSRWFGDVEYWGQGSLVTVSS VL: EIVLTQSPLSLPVTLGQPASISCRSSQSLVFSDGNTYLSWFHQRPGQAPRRLIYKVSDRDSGVPDRFSGSGSGTDFTLKISRVEAEDVGVYYCMQGSHWPPSFGPGTKVEIK | binds | –
H1-Ab18 (antibody, V domains shown) VH: EVQLVESGGGLLKPGGSLRLSCAASGFTFNNAWMSWVRQPPGKGLEWVGRIKSESDDETPDYAAPVKGRFDISRDDSKNMLYLQMSSLKTEDTAVYYCATDHSSHYYDRPDYWGQGTLVTVSS VL: QSVLTQSPSASASLGASVKLTCILSSGHSDYAIAWHQQQPEKGPRYLMKLNIDGSHSKGDGIPDRFSGSTSGAERYLTISSLQSEDEADYYCQTWDTGIHVFGGGTRLTVL | binds | –
H1-Ab23 (antibody, V domains shown) VH: EVQLVESGGGLVKPGGSLRLSCAASGFTFSSYSMHWVRQAPGKGLEWISSISSTGNYIYYADSVKGRFTISRDNARNSLYAQLNSLRAEDTAVYYCATGVTSSYGGHPGYFDSWGQGTLVTVSS VL: DIRMTQSPSSLSASVGDRVTITCQASQDISKYLNWYQQKPGKAPKVLIYDASNLETGVPSRFSGSRSGTDFTFTISRLQPEDIGTYYCQQYDDPFLTFGGGTKVEIK | binds | –
H1-Ab26 (antibody, V domains shown) VH: EVQLVQSGGGLVQPGSSLRLSCAASGFTFSNFAMSWVRQAPGKGLEWVSTINAGSGSKDYANSVKGRFTISRDNTKNTLYLQMKSLRAEDTAVYYCAKDTGHTIFGVVRPYYNGMDVWGQGTTVTVSS VL: DNQMTQSPLSLPVTLGQPASISCRSSQSLVYSDGNTYLNWFQQRPGQSPRRLIYKVSNRDSGVPDRFSGSGSGTDFTLKISRVEAEDVGVYYCMQGTHPYTFGQGTKVEIK | binds | –
H1-Ab27 (antibody, V domains shown) VH: EVQLVQSGGGLVQPGSSLRLSCAASGFTFSNFAMSWVRQAPGKGLEWVSTINAGSGSKDYANSVKGRFTISRDNTKNTLYLQMKSLRAEDTAVYYCAKDTGHTIFGVVRPYYNGMDVWGQGTTVTVSS VL: EIVMTQSPGTLSLSPGERATLSCRASQSVSSSYLAWYQQKPGQAPRLLIYGASSRATGIPDRFSGSGSGTDFTLTITRLEPEDFAVYYCQQYGGSPMYTFGQGTKVEIK | binds | –
H1-Ab33 (antibody, V domains shown) VH: EVQLVESGGGLVQPGGSLRLSCAASGFTFSSYAMSWVRQAPGKGLEWVSGINAGGGSTFYADSVKGRFTISRGNSKNTLYLQMHSLRAEDTAIYYCAKDQGNAIFGLVIPSYYFDYWGQGTLVTVSS VL: not shown | binds | –
H1-Ab37 (antibody, V domains shown) VH: LVQLVESGGGLVQPGGSLRLSCAASGFTFSSYAMSWVRQAPGKGLEWVSGINAGGGSTFYADSVKGRFTISRDNSKNTLYLQMHSLRAEDTAIYYCAKDQGNAIFGLVIPSYYFDYWGQGTLVTVSS VL: not shown | binds | –
H1-Ab38 (antibody, V domains shown) VH: EVQLVESGGGVVQPGRSLRLSCAASGFTFSSNAMHWVRQAPGKGLEWVAVISSDGSSKYYADSVKGRFTISRDNSKNTLFLQMNSLRADDTAIYYCARRYDGFDYWGQGSLVTVSS VL: QSVLTQPASVSGSPGQSITISCTGTSSDVGSYNLVSWYQQHPGKAPKLMIYEVNKRPSGVSNRFSGSKSGNTASLTISGLQAEDEADYHCCSYAGSYTYVFGGGTKLTVL | binds | –
H1-Ab51 (antibody, V domains shown) VH: EVQLVESGPGLVKPSETLSLTCTVSGGSISSNTYYWGWIRQPPGKGLEWIETIYYSGSTYYNPSLKSRVTISVDTSKNQFSLKLSSVTAADSAVYYCARSYCGGGCNFDAFDIWGQGTVVTVSS VL: QSVLTQPASVSGSPGQSITISCTGSSSDVGGYNYVSWYQQHPGKAPKLMIFDVSNRPSGVSNRFSGSKSGNTASLTISGLQAEDEADYYCSSYTSNITLVFGGGTKLTVL | binds | –
H1-Ab53 (antibody, V domains shown) VH: EVQLVESGLRLVKPSETLSVTCTVSGGSMSTTSYYWGWIRQPPGKALEWIGSIYYDGNSYYKPSLRSRFTMLVDTSKNQFSLKLTSVTAADTAVYYCARMSYMDYDFSTGYWNWFDPWGQGTLVTVSS VL: QSVLTQPASVSGSPGQSITISCTGTRRDVGSYRLVSWYQHHPGKAPKLMIYEGTKRPSGVSDRFSGSKSGNTASIIISGFQAEDEADYYCCSYAGSSTWVFGGGTRVTVL | binds | –
H1-Ab61 (antibody, V domains shown) VH: EVQLLESGAEVKKPGESLKISCKTSGYTFPRYWVGWVRQMPGKGLEWMGFIYPGDATTRYSPSFQGQVTISADKSINTAYLHWSSLKASDTAVYFCARHPGDKSFYYYGLDVWGQGTTVTVSS VL: AIRMTQSPSTLSASVGDRVTITCRASQSIRSWLAWYQQKPGKAPKLLISKASSLQSGVPSRFSGTGSGTEFTLTISSLQPDDFATYYCQQYNSDSITFGQGTRLEIK | binds | –
H7-Ab1 (antibody, V domains shown) VH: EVQLVQSGAEVKKPGASVKVSCKTSYAMHWVRQAPGQRLEWMGWINAGNGYTKYSPKFQGRVTFTWDTSASTAYMELNSLRSEDTAVYYCAHGSGSYLNWFDPWGQGTLVTVSS VL: QSVLTQPASVSGSPGQSITISCTGTSSDVGGYNYVSWYQQHPGKAPKLMIYEVSNRPSGVSNRFSGSKSGNTASLTISGLQAEDEVDYYCTSYTSSSTLVAFGRGTKLTVL | – | binds
H7-Ab3 (antibody, V domains shown) VH: EVQLVESGAEVKKPGSSVKVSCKTSGGTFNIYAINWVRQAPGQGLEWMGMIIPIFGSPKTAREFQDRLTIDADTSTSTAYMELSNLTSEDTATYFCSRVADDYDFWSPNKFWGQGTLVTVSS VL: DIQLTQSPSTLSASVGDTVTITCRASQSVNSWLAWYQQKPGKAPKLLIYKTFNLETGVPSRFSATGSGTEFTLTISRLQPDDFATYYCQQYNSNSHFGQGTKVEIK | – | binds
H7-Ab4 (antibody, V domains shown) VH: EVQLVESGAEVKKPGSSVKVSCKASGGTFSSHGINWVRQAPGQRLEWMGGINPISGTPHYAQKFQGRVTITADESTTTSYMELSSLRSEDTAVYYCARIHRAGLEANYWGQGTLVTVSS VL: not shown | – | binds
H7-Ab5 (antibody, V domains shown) VH: EVQLVESGAEMRKPGSSVKVSCKASGGTFNTYGISWVRQAPGQGLEWMGGIIPMFGTENHAQKFQGRVTITADKSTSIAYMELSSLTSEDTAVYYCARAPVVGSRNVYYYHGLDVWGQGTTVTVSS VL: SYELTQPPSVSVSPGQTARITCSGDALPKRYAFWYQQKPGQAPVLVIYKDTERPSGIPERFSGSRSGTTVTLTISGVQAEDEGDYYCQSADSSDPCLFGGGTKLTVL | – | binds
